In the supplement of paper PMC9112550, “Optimization of the antimicrobial peptide Bac7 by deep mutational scanning” (BMC Biology, 2022):

What follows are sequences tested on Escherichia coli TOP10 (assay: shrunken log2 fold change of peptide-encoding DNA abundance (4.5 h post-induction vs induction); higher = less antimicrobial activity (less host growth inhibition)). Conditions: time post-induction: 4.5 h; library: site-saturation at positions 5, 18, 19, 20.
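Note: peptides expressed intracellularly from a pBAD plasmid library in pooled LB shake-flask culture, induced with 0.3% L-arabinose, DNA abundance read by NGS, three biological replicates, DESeq2 with apeglm shrinkage.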

RRIRSRPPRLPRPRPRPNCCPRP and RRIRPRPPRLPRPRPRPFFVPRP are within 0.2 log units of each other in “shrunken log2 fold change” value: -0.105 for the first, 0.064 for the second.

First: RRIRWRPPRLPRPRPRPGCPPRP
Second: RRIRPRPPRLPRPRPRPHYFPRP
The “shrunken log2 fold change” value of the first is higher: 0.0461 for the first, -0.335 for the second.

First: RRIRIRPPRLPRPRPRPRFTPRP
Second: RRIRCRPPRLPRPRPRPMSFPRP
The “shrunken log2 fold change” value of the first is higher: -0.043 for the first, -0.29 for the second.

RRIRARPPRLPRPRPRPSPLPRP and RRIRGRPPRLPRPRPRPKMIPRP are within 0.2 log units of each other in “shrunken log2 fold change” value: 0.238 for the first, 0.425 for the second.

RRIRQRPPRLPRPRPRPDEVPRP and RRIRVRPPRLPRPRPRPRDKPRP are within 0.2 log units of each other in “shrunken log2 fold change” value: 0.0037 for the first, -0.179 for the second.

RRIRVRPPRLPRPRPRPSPYPRP and RRIRNRPPRLPRPRPRPYCQPRP are within 0.2 log units of each other in “shrunken log2 fold change” value: -0.409 for the first, -0.358 for the second.

RRIRWRPPRLPRPRPRPVLGPRP and RRIRPRPPRLPRPRPRPWVRPRP are within 0.2 log units of each other in “shrunken log2 fold change” value: 0.241 for the first, 0.113 for the second.

Compared with RRIRVRPPRLPRPRPRPVANPRP, RRIRIRPPRLPRPRPRPPSLPRP is higher in “shrunken log2 fold change” value: -0.0212 for the first, 0.18 for the second.

Going from RRIRYRPPRLPRPRPRPFCMPRP to RRIRLRPPRLPRPRPRPDYYPRP, the “shrunken log2 fold change” value rises from -0.604 to -0.216.

RRIRFRPPRLPRPRPRPIGMPRP and RRIRDRPPRLPRPRPRPHFPPRP are within 0.2 log units of each other in “shrunken log2 fold change” value: -0.0266 for the first, -0.0339 for the second.

Going from RRIRYRPPRLPRPRPRPFGFPRP to RRIRSRPPRLPRPRPRPLPAPRP, the “shrunken log2 fold change” value rises from -0.918 to 0.494.

RRIRVRPPRLPRPRPRPITSPRP and RRIRIRPPRLPRPRPRPCFSPRP are within 0.2 log units of each other in “shrunken log2 fold change” value: -0.21 for the first, -0.198 for the second.

RRIRHRPPRLPRPRPRPKYYPRP and RRIRSRPPRLPRPRPRPNGFPRP are within 0.2 log units of each other in “shrunken log2 fold change” value: 0.046 for the first, -0.0748 for the second.

First: RRIRSRPPRLPRPRPRPKQFPRP
Second: RRIRTRPPRLPRPRPRPYWIPRP
The “shrunken log2 fold change” value of the first is higher: 0.26 for the first, -0.0377 for the second.

RRIRSRPPRLPRPRPRPGKEPRP and RRIRGRPPRLPRPRPRPKRFPRP are within 0.2 log units of each other in “shrunken log2 fold change” value: -0.0291 for the first, -0.0242 for the second.

First: RRIRPRPPRLPRPRPRPVMMPRP
Second: RRIRQRPPRLPRPRPRPVQIPRP
The “shrunken log2 fold change” value of the first is higher: 3.4 for the first, 0.0268 for the second.

Compared with RRIRFRPPRLPRPRPRPIFIPRP, RRIRNRPPRLPRPRPRPYQFPRP is higher in “shrunken log2 fold change” value: -0.777 for the first, -0.225 for the second.

RRIRVRPPRLPRPRPRPIYYPRP and RRIRLRPPRLPRPRPRPFKLPRP are within 0.2 log units of each other in “shrunken log2 fold change” value: -0.455 for the first, -0.294 for the second.

Going from RRIRPRPPRLPRPRPRPVAPPRP to RRIRWRPPRLPRPRPRPYIYPRP, the “shrunken log2 fold change” value falls from 0.411 to -0.541.

Going from RRIRGRPPRLPRPRPRPTCMPRP to RRIRRRPPRLPRPRPRPYKKPRP, the “shrunken log2 fold change” value falls from 0.879 to 0.142.

Going from RRIRCRPPRLPRPRPRPYWWPRP to RRIRFRPPRLPRPRPRPEGRPRP, the “shrunken log2 fold change” value rises from -0.441 to -0.145.

Going from RRIRIRPPRLPRPRPRPHFCPRP to RRIRDRPPRLPRPRPRPMHTPRP, the “shrunken log2 fold change” value rises from -0.139 to 0.0757.

Going from RRIRGRPPRLPRPRPRPKHWPRP to RRIRMRPPRLPRPRPRPCIQPRP, the “shrunken log2 fold change” value falls from 0.646 to -0.214.

First: RRIRDRPPRLPRPRPRPGFSPRP
Second: RRIRVRPPRLPRPRPRPPNIPRP
The “shrunken log2 fold change” value of the first is higher: 0.0888 for the first, -0.475 for the second.

First: RRIRHRPPRLPRPRPRPGIQPRP
Second: RRIRTRPPRLPRPRPRPLRGPRP
The “shrunken log2 fold change” value of the first is lower: -0.277 for the first, 0.897 for the second.

Going from RRIRYRPPRLPRPRPRPWYFPRP to RRIRSRPPRLPRPRPRPDCSPRP, the “shrunken log2 fold change” value rises from -0.15 to 0.0664.

Compared with RRIRERPPRLPRPRPRPIITPRP, RRIRSRPPRLPRPRPRPVMCPRP is higher in “shrunken log2 fold change” value: -0.867 for the first, -0.173 for the second.

RRIRARPPRLPRPRPRPFLVPRP and RRIRCRPPRLPRPRPRPCDMPRP are within 0.2 log units of each other in “shrunken log2 fold change” value: -0.205 for the first, -0.277 for the second.

Going from RRIRRRPPRLPRPRPRPPYQPRP to RRIRPRPPRLPRPRPRPPGDPRP, the “shrunken log2 fold change” value rises from 0.245 to 0.567.

First: RRIRARPPRLPRPRPRPESEPRP
Second: RRIRYRPPRLPRPRPRPMGDPRP
The “shrunken log2 fold change” value of the first is higher: 3.51 for the first, -0.0018 for the second.

RRIRSRPPRLPRPRPRPDTNPRP and RRIRLRPPRLPRPRPRPFVMPRP are within 0.2 log units of each other in “shrunken log2 fold change” value: -0.111 for the first, -0.241 for the second.

Compared with RRIRNRPPRLPRPRPRPAGVPRP, RRIRRRPPRLPRPRPRPQMIPRP is lower in “shrunken log2 fold change” value: 0.329 for the first, -0.0521 for the second.

RRIRYRPPRLPRPRPRPMLFPRP and RRIRDRPPRLPRPRPRPTYMPRP are within 0.2 log units of each other in “shrunken log2 fold change” value: -0.347 for the first, -0.248 for the second.

First: RRIRNRPPRLPRPRPRPAHPPRP
Second: RRIRMRPPRLPRPRPRPNGSPRP
The “shrunken log2 fold change” value of the first is higher: 0.307 for the first, -0.000925 for the second.

Compared with RRIRGRPPRLPRPRPRPRMGPRP, RRIRFRPPRLPRPRPRPRAKPRP is lower in “shrunken log2 fold change” value: 0.868 for the first, 0.189 for the second.

Compared with RRIRIRPPRLPRPRPRPAESPRP, RRIRGRPPRLPRPRPRPLTAPRP is higher in “shrunken log2 fold change” value: 0.0486 for the first, 0.998 for the second.

Compared with RRIRHRPPRLPRPRPRPSTKPRP, RRIRHRPPRLPRPRPRPWGDPRP is higher in “shrunken log2 fold change” value: -0.383 for the first, 0.0821 for the second.

Going from RRIRYRPPRLPRPRPRPISGPRP to RRIRTRPPRLPRPRPRPMCGPRP, the “shrunken log2 fold change” value falls from 0.0356 to -0.171.

RRIRIRPPRLPRPRPRPIEEPRP and RRIRIRPPRLPRPRPRPEMVPRP are within 0.2 log units of each other in “shrunken log2 fold change” value: -0.0195 for the first, -0.14 for the second.

Going from RRIRQRPPRLPRPRPRPSVPPRP to RRIRYRPPRLPRPRPRPMWYPRP, the “shrunken log2 fold change” value falls from -0.0859 to -0.884.

Compared with RRIRMRPPRLPRPRPRPSKAPRP, RRIRSRPPRLPRPRPRPWLPPRP is lower in “shrunken log2 fold change” value: 0.455 for the first, 0.0131 for the second.

Going from RRIRWRPPRLPRPRPRPFRAPRP to RRIRLRPPRLPRPRPRPFWRPRP, the “shrunken log2 fold change” value rises from -0.112 to 0.252.

Compared with RRIRKRPPRLPRPRPRPAGIPRP, RRIRGRPPRLPRPRPRPRTAPRP is higher in “shrunken log2 fold change” value: 0.252 for the first, 1.12 for the second.

First: RRIRERPPRLPRPRPRPPHWPRP
Second: RRIRYRPPRLPRPRPRPCLHPRP
The “shrunken log2 fold change” value of the first is higher: 0.223 for the first, -0.633 for the second.

Going from RRIRNRPPRLPRPRPRPWPLPRP to RRIRARPPRLPRPRPRPHTFPRP, the “shrunken log2 fold change” value falls from -0.0801 to -0.314.

RRIRQRPPRLPRPRPRPEALPRP and RRIRPRPPRLPRPRPRPCVTPRP are within 0.2 log units of each other in “shrunken log2 fold change” value: -0.0434 for the first, 0.15 for the second.

RRIRVRPPRLPRPRPRPACRPRP and RRIRARPPRLPRPRPRPWMAPRP are within 0.2 log units of each other in “shrunken log2 fold change” value: -0.132 for the first, 0.0631 for the second.

Going from RRIRERPPRLPRPRPRPYTTPRP to RRIRARPPRLPRPRPRPYDWPRP, the “shrunken log2 fold change” value rises from -0.49 to 0.0315.

RRIRYRPPRLPRPRPRPQYIPRP and RRIRSRPPRLPRPRPRPQSFPRP are within 0.2 log units of each other in “shrunken log2 fold change” value: 0.0111 for the first, -0.0939 for the second.

RRIRPRPPRLPRPRPRPCPQPRP and RRIRMRPPRLPRPRPRPIELPRP are within 0.2 log units of each other in “shrunken log2 fold change” value: -0.0291 for the first, -0.04 for the second.

Going from RRIRYRPPRLPRPRPRPNQNPRP to RRIRSRPPRLPRPRPRPAGPPRP, the “shrunken log2 fold change” value rises from -0.967 to 0.493.

RRIRNRPPRLPRPRPRPKSGPRP and RRIRLRPPRLPRPRPRPRACPRP are within 0.2 log units of each other in “shrunken log2 fold change” value: 0.161 for the first, 0.223 for the second.

RRIRIRPPRLPRPRPRPAWRPRP and RRIRIRPPRLPRPRPRPPGLPRP are within 0.2 log units of each other in “shrunken log2 fold change” value: 0.263 for the first, 0.204 for the second.

Compared with RRIRMRPPRLPRPRPRPDTTPRP, RRIRVRPPRLPRPRPRPFCYPRP is lower in “shrunken log2 fold change” value: 0.536 for the first, -0.133 for the second.

RRIRCRPPRLPRPRPRPGKRPRP and RRIRQRPPRLPRPRPRPVFPPRP are within 0.2 log units of each other in “shrunken log2 fold change” value: 0.244 for the first, 0.212 for the second.

RRIRPRPPRLPRPRPRPDESPRP and RRIRARPPRLPRPRPRPVINPRP are within 0.2 log units of each other in “shrunken log2 fold change” value: -0.188 for the first, -0.383 for the second.

RRIRYRPPRLPRPRPRPQKTPRP and RRIRRRPPRLPRPRPRPFVLPRP are within 0.2 log units of each other in “shrunken log2 fold change” value: -0.0404 for the first, -0.0834 for the second.

RRIRCRPPRLPRPRPRPNWYPRP and RRIRIRPPRLPRPRPRPKQLPRP are within 0.2 log units of each other in “shrunken log2 fold change” value: 0.09 for the first, -0.0927 for the second.

Compared with RRIRYRPPRLPRPRPRPHAYPRP, RRIRYRPPRLPRPRPRPCYQPRP is lower in “shrunken log2 fold change” value: -0.0226 for the first, -0.285 for the second.

RRIRVRPPRLPRPRPRPFMRPRP and RRIRHRPPRLPRPRPRPRGVPRP are within 0.2 log units of each other in “shrunken log2 fold change” value: 0.184 for the first, 0.335 for the second.

RRIRDRPPRLPRPRPRPCKHPRP and RRIRNRPPRLPRPRPRPQYLPRP are within 0.2 log units of each other in “shrunken log2 fold change” value: -0.181 for the first, -0.123 for the second.

RRIRMRPPRLPRPRPRPTFEPRP and RRIRFRPPRLPRPRPRPEQVPRP are within 0.2 log units of each other in “shrunken log2 fold change” value: -0.0436 for the first, 0.0138 for the second.

In the case of RRIRSRPPRLPRPRPRPQAWPRP, the “shrunken log2 fold change” value is reported as -0.0983.
